US20240116985A1, “STAPLED PEPTIDES AND METHODS THEREOF” (priority 2020, published 2024)
Starred links: 1 amine or outer side, 2 acyl side, 3 side chain; linkers in the order of their positions; H or OH if unused. Positions of bridges follow the written chain, without caps; N, C: chain ends. Non-standard residues stand in square brackets, D forms with d. Primed or numbered codes have the meaning given here. PyrS2″ = (S)-3-amino-1-((pent-4-en-1-yloxy)carbonyl)pyrrolidine-3-carboxylic acid (stapling residue), C=CCCCOC(=O)N1CC[C@@](N[*:1])(C(=O)[*:2])C1; B5(4) = 2,2-bis(4-pentenyl)glycine = 2-amino-2-(pent-4-en-1-yl)hept-6-enoic acid (stitching residue), C=CCCCC(CCCC=C)(N[*:1])C(=O)[*:2]; B5(5) = 2,2-bis(4-pentenyl)glycine, 2-amino-2-(pent-4-en-1-yl)hept-6-enoic acid (stitching residue), C=CCCCC(CCCC=C)(N[*:1])C(=O)[*:2]; TfeGA = (S)-2-amino-3-((carboxymethyl)(2,2,2-trifluoroethyl)amino)propanoic acid, O=C([C@H](CN(CC(=O)[*:3])CC(F)(F)F)N[*:1])[*:2]; PyrS2 = (S)-3-amino-1-((pent-4-en-1-yloxy)carbonyl)pyrrolidine-3-carboxylic acid, C=CCCCOC(=O)N1CC[C@@](N[*:1])(C(=O)[*:2])C1; B5(12) = 2-amino-2-(pent-4-en-1-yl)hept-6-enoic acid (two olefin side chains), C=CCCCC(CCCC=C)(N[*:1])C(=O)[*:2]; EtGA = (S)-2-amino-3-((carboxymethyl)(ethyl)amino)propanoic acid, CCN(CC(=O)[*:3])C[C@H](N[*:1])C(=O)[*:2]; B5(3) = 2,2-bis(4-pentenyl)glycine (stitching residue), C=CCCCC(CCCC=C)(N[*:1])C(=O)[*:2]; B5 = 2-amino-2-(pent-4-en-1-yl)hept-6-enoic acid, C=CCCCC(CCCC=C)(N[*:1])C(=O)[*:2]; Bta = N[C@@H](Cc1csc2ccccc12)C(=O)O; αAllylPro = C=CC[C@@]1(C(=O)O)CCCN1; tBuAla = CC(C)(C)C[C@H](N)C(=O)O; 3Thi = N[C@@H](Cc1ccsc1)C(=O)O; Aad = N[C@@H](CCCC(=O)O)C(=O)O; Cit = NC(=O)NCCC[C@H](N)C(=O)O; S8 = C=CCCCCCC[C@](C)(N)C(=O)O

Experiments:
[1] = biological target: full-length beta-Catenin (Uniprot ID P35222) (Homo sapiens (Human)) (UniProt P35222); test: fluorescence polarization competition; 10 nM full-length beta-catenin with 10 nM 5FAM-TCF4 (residues 10-53) probe as competitor
Target sequence in this assay (P35222 2-781 limits assumed): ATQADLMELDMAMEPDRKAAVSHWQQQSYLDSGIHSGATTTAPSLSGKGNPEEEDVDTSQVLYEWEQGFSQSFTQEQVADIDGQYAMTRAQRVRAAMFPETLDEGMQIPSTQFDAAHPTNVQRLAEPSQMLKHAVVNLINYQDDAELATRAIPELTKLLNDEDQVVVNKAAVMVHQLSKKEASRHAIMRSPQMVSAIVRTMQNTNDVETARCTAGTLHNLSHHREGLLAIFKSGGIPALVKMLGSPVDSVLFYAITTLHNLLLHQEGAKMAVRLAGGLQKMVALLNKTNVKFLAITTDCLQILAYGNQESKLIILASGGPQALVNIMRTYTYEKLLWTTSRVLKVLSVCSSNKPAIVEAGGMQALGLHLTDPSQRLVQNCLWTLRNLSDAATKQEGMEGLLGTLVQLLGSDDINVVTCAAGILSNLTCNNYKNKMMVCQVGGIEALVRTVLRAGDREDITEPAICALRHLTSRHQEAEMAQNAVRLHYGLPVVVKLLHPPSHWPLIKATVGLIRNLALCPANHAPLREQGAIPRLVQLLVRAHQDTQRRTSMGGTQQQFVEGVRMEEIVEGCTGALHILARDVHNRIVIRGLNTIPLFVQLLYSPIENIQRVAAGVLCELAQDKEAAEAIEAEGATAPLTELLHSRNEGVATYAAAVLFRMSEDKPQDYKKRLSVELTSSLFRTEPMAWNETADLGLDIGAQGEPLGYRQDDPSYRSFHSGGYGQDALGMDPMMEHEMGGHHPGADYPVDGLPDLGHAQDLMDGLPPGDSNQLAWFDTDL

[2] = biological target: full-length beta-Catenin (Uniprot ID P35222) (Homo sapiens (Human)) (UniProt P35222); test: FP competition vs 5FAM-TCF4(10-53), full-length beta-catenin
Target sequence in this assay (P35222 2-781 limits assumed): as above

Bcat-Halo = Bcat-Halo (UniProt P35222); test: NanoBRET Abs IC50, HEK293 cells, B-cat-Halo/TCF4-Luc; competitor TCF4-Luc
Sequence of Bcat-Halo (P35222 whole entry): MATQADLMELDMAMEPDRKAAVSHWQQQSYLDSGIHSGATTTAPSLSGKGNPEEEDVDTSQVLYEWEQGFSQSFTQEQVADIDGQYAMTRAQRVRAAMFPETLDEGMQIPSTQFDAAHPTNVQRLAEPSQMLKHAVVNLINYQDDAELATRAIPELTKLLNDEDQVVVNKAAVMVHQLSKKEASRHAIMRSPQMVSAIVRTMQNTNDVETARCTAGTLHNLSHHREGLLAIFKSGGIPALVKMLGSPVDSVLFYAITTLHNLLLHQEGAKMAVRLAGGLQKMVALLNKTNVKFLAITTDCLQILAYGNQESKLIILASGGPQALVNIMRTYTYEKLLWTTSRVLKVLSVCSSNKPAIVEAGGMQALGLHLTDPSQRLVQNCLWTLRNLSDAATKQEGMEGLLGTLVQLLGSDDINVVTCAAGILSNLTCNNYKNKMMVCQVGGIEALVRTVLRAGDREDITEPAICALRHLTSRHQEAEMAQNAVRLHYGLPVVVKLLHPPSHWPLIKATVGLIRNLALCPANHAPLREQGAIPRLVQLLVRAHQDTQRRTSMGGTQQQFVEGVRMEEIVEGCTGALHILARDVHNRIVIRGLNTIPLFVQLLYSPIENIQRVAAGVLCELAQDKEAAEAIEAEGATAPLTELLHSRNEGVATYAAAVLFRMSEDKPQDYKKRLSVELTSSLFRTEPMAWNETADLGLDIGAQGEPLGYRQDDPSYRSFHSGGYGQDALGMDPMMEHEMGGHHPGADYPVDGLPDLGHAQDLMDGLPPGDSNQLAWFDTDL

[3] = biological target: full-length beta-Catenin (Uniprot ID P35222) (Homo sapiens (Human)) (UniProt P35222); test: fluorescence polarization competition; full-length beta-catenin with 5FAM-TCF4(10-53) probe as competitor
Target sequence in this assay (P35222 whole entry, the tested form may be a part, one chain of several): as the sequence (P35222 whole entry) above

[4] = biological target: full-length beta-Catenin (Uniprot ID P35222) (Homo sapiens (Human)) (UniProt P35222); test: fluorescence polarization competition; full-length beta-catenin, 5FAM-TCF4 10-53 probe
Target sequence in this assay (P35222 whole entry, the tested form may be a part, one chain of several): as the sequence (P35222 whole entry) above

[5] = biological target: full-length beta-Catenin (Uniprot ID P35222) (Homo sapiens (Human)) (UniProt P35222); test: fluorescence polarization competition; full-length beta-catenin, competitor 5FAM-TCF4(10-53) probe
Target sequence in this assay (P35222 whole entry, the tested form may be a part, one chain of several): as the sequence (P35222 whole entry) above

[6] = biological target: full-length beta-Catenin (Uniprot ID P35222) (Homo sapiens (Human)) (UniProt P35222); test: fluorescence polarization competition; displacement of 5FAM-TCF4(10-53) from full-length beta-catenin
Target sequence in this assay (P35222 whole entry, the tested form may be a part, one chain of several): as the sequence (P35222 whole entry) above

[7] = biological target: Bcat-Halo (beta-catenin HaloTag construct expressed in HEK293 cells) (UniProt P35222); test: NanoBRET Abs IC50 in HEK293 cells; Bcat-Halo with TCF4-Luc as competitor
Sequence of Bcat-Halo (beta-catenin HaloTag construct expressed in HEK293 cells) (P35222 whole entry): as above

[8] = biological target: full-length beta-Catenin (Uniprot ID P35222) (Homo sapiens (Human)) (UniProt P35222); test: fluorescence polarization competition; peptide titrated against 10 nM full-length beta-catenin + 10 nM 5FAM-TCF4(10-53) probe
Target sequence in this assay (P35222 whole entry, the tested form may be a part, one chain of several): as the sequence (P35222 whole entry) above

| EC50 [1] | IC50 [3] | IC50 [4] | IC50 [6] | IC50 [7] | Binder | further results |
| --- | --- | --- | --- | --- | --- | --- |
| 22 nM | – | – | – | – | Ac-[αAllylPro]D[tBuAla][B5(12)]DHAAFN[PyrS2][3Thi][Bta]-NH2 (staple 1-4, 4-11) [I-863] | IC50 [2]: 22 nM; IC50 (Bcat-Halo): > 20000 nM |
| – | 211 nM | 211 nM | – | – | Ac-[αAllylPro]DI[B5(5)]D[EtGA]AAFQ[S8]F[Bta]Q-NH2 (staple 1-4, 4-11; not fully specified; printed as Ac-PL3-Asp-Ile-B5-Asp-EtGa-Ala-Ala-Phe-Gln-S8-Phe-BztA-Gln-NH2) [I-608] | EC50 [5]: 211 nM |
| 5 nM | – | – | 5 nM | 23800 nM | Ac-[αAllylPro]D[tBuAla][B5(4)]DNAAFN[PyrS2″][3Thi][Bta]H-NH2 (staple 1-4, 4-11) [I-837] | – |
| 12 nM | – | – | 12 nM | 17400 nM | Ac-[αAllylPro]D[tBuAla][B5(4)]DQAAFN[PyrS2″][3Thi][Bta]Q-NH2 (staple 1-4, 4-11) [I-838] | – |
| 34 nM | – | – | 34 nM | 47900 nM | Ac-[αAllylPro]D[tBuAla][B5(4)]DYAAFN[PyrS2″][3Thi][Bta]Q-NH2 (staple 1-4, 4-11) [I-842] | – |
| 7 nM | – | – | 7 nM | 41900 nM | Ac-[αAllylPro]D[tBuAla][B5(4)]DQAAFN[PyrS2″][3Thi][Bta]H-NH2 (staple 1-4, 4-11) [I-839] | – |
| – | 80 nM | 80 nM | – | – | Ac-[αAllylPro]DI[B5(5)]D[EtGA]AAFQ[S8]F[Bta]Q-NH2 (staple 1-4, 4-11; also: staple isomer 2) [I-609] | EC50 [5]: 80 nM |
| 34 nM | – | – | – | – | Ac-[αAllylPro]D[tBuAla][B5(12)]DQAAFN[PyrS2][3Thi][Bta]-NH2 (staple 1-4, 4-11) [I-858] | IC50 [2]: 34 nM; IC50 (Bcat-Halo): > 20000 nM |
| – | 54 nM | 54 nM | – | – | Ac-[αAllylPro]DI[B5]D[TfeGA]AAFQ[S8]F[Bta]Q-NH2 (staple 1-4, 4-11; not fully specified) [I-610] | EC50 [5]: 54 nM |
| 36 nM | – | – | – | – | Ac-[αAllylPro]D[tBuAla][B5(12)]DTAAFN[PyrS2][3Thi][Bta]-NH2 (staple 1-4, 4-11; also: earlier eluting HPLC peak (staple isomer)) [I-859] | IC50 [2]: 36 nM; IC50 (Bcat-Halo): > 20000 nM |
| – | 64 nM | 64 nM | – | – | Ac-[αAllylPro]DI[B5]D[Aad]AAFQ[S8]F[Bta]Q-NH2 (staple 1-4, 4-11) [I-612] | EC50 [8]: 64 nM |
| 12 nM | – | – | 12 nM | 34400 nM | Ac-[αAllylPro]D[tBuAla][B5(4)]D[Cit]AAFN[PyrS2″][3Thi][Bta]H-NH2 (staple 1-4, 4-11) [I-841] | – |
| – | 55 nM | 55 nM | – | – | Ac-[αAllylPro]DI[B5]D[TfeGA]AAFQ[S8]F[Bta]Q-NH2 (staple 1-4, 4-11; also: staple isomer 2) [I-611] | EC50 [8]: 55 nM |
